Earlier results on two substances are cited in paper PMC7915401.

Where two headings read alike, the source gives them in different places.

Series [1] addresses CD200R1 (Homo sapiens) (UniProt Q8TD46).
For series [2] the target is unchanged. The source holds these as a separate data set.

UniProt Q8TD46, sequence (Q8TD46 25-265): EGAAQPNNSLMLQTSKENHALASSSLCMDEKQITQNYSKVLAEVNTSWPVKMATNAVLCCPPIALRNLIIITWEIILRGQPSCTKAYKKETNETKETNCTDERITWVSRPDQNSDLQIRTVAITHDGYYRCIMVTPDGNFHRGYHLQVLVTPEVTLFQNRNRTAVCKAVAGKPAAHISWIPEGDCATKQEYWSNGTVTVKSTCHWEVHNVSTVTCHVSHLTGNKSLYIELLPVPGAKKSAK

For the substance CD200 (from UniProt P41217), the Kd with CD200R1 (Homo sapiens) [1] is 500 nM.

As for K14 (vOX2) (from UniProt P0C788), the Kd in the series with CD200R1 (Homo sapiens) [2] is 500 nM.

Broadly, the Kd is the constant that tells how readily two partners part at equilibrium.
